Experimental data as given in patent US20150344888A1 (Genentech, published 2015).
Where “and” joins values, the source holds several entries; their conditions need not be identical. Identical values can stand only once. Where no end group is shown, it is not given here.

T1: biotinylated USP30_cd (USP30 catalytic domain with C77A mutation) (Homo sapiens (Human), UniProt Q70CQ3 57-517, limits assumed, biotinylated (site not stated))
T1 sequence: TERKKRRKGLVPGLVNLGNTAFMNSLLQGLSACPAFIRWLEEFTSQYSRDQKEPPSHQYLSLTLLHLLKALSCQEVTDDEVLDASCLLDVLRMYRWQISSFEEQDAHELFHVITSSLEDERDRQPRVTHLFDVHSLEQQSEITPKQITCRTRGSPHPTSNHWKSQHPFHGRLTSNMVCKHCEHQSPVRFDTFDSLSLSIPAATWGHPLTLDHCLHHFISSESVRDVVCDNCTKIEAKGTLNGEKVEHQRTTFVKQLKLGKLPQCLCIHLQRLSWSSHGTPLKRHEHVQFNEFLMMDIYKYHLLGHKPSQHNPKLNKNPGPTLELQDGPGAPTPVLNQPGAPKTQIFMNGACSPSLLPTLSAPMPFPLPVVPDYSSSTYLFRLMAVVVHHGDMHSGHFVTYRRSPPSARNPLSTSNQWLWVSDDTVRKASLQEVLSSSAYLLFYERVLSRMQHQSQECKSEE

T2: USP5 (UniProt P45974 1-858, limits assumed)
T2 sequence (looked up): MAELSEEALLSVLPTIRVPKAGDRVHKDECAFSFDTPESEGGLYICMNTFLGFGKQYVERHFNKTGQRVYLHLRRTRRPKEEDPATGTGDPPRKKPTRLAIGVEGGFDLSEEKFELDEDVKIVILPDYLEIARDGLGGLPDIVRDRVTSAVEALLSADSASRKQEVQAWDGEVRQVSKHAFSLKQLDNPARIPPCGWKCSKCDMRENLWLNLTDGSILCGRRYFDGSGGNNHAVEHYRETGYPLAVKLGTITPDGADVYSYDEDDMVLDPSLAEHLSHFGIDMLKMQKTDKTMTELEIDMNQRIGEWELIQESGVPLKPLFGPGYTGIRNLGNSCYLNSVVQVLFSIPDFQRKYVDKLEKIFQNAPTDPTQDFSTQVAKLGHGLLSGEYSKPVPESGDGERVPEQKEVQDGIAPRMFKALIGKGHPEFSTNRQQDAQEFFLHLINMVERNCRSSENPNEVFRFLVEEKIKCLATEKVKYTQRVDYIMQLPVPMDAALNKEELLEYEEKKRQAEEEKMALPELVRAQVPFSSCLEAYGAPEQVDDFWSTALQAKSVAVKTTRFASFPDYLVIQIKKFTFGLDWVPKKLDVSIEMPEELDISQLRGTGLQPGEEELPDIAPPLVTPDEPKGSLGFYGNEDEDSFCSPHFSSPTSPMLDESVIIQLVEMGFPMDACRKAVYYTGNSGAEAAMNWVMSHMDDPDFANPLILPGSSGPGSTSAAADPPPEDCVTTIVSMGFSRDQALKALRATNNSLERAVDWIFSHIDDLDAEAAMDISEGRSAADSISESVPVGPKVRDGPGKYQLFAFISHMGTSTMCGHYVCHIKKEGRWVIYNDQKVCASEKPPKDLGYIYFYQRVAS

T3: USP30 (active enzyme in the ubiquitin-AMC assay) (Homo sapiens (Human), UniProt Q70CQ3 57-517, limits assumed)
T3 sequence: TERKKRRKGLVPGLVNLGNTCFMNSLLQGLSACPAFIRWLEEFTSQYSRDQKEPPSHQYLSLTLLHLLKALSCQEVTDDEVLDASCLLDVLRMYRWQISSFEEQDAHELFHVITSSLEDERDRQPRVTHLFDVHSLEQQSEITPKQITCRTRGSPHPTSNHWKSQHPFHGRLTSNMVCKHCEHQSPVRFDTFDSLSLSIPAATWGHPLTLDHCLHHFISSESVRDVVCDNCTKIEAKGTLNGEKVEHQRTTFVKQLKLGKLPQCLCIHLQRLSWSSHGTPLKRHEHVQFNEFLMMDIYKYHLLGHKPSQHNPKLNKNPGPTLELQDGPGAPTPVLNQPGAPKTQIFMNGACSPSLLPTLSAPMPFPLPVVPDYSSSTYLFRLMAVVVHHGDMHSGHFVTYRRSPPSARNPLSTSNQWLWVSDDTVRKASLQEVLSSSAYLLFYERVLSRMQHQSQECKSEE

T4: USP2 (UniProt O75604 259-605, limits assumed)
T4 sequence (looked up): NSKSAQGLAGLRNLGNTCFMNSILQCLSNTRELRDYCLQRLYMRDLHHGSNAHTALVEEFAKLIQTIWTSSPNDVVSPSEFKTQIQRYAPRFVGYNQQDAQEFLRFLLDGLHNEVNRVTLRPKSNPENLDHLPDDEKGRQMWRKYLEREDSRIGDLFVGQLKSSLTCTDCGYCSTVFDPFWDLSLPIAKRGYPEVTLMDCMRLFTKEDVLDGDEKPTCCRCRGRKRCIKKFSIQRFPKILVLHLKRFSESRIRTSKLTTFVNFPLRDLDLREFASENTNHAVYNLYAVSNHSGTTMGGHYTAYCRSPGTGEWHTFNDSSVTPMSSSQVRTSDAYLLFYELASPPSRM

T5: UCHL3 (UniProt P15374 1-230)
T5 sequence (looked up): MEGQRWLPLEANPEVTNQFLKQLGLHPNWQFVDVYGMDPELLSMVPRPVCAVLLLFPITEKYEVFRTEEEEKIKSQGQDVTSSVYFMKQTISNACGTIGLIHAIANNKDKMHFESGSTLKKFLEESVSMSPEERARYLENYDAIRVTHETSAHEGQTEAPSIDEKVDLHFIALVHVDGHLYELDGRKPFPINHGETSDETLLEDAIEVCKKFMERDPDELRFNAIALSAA


Assays:
[1] = target: T1, biotinylated USP30_cd (USP30 catalytic …); assay: spot phage ELISA on biotinylated USP30_cd
From the text: The selection identified peptide USP30_{—}3 and USP30_{—}8, which had moderate spot ELISA signals (signal/noise ratios of ˜5).

USP5 = target: T2, USP5; assay: cell-based or functional assay
[2] = target: T3, USP30 (active enzyme in the …); assay: cell-based or functional assay
USP2 = target: T4, USP2; assay: cell-based or functional assay
UCHL3 = target: T5, UCHL3; assay: cell-based or functional assay

Row | Binder | signal/noise ratio (spot ELISA) [1] | IC50, inhibition of ubiquitin-AMC cleavage (initial rate, fluorescence) (USP5) | fold higher IC50 than for USP30 (USP5) | IC50, inhibition of ubiquitin-AMC cleavage (initial rate, fluorescence) [2] | IC50, inhibition of ubiquitin-AMC cleavage (initial rate, fluorescence) (USP2) | fold higher IC50 than for USP30 (USP2) | IC50, inhibition of ubiquitin-AMC cleavage (initial rate, fluorescence) (UCHL3)
1 | PLYCFYDLTYGYLCFY (also called pep3; parent USP30-3) [peptide USP30-3] | ~5 | 49.4 µM | > 6 fold | 8 µM | ~100 µM and > 200 µM | > 10 fold | > 200 µM
2 | VSRCYIFWNEMFCDVE (not fully specified (bridges); cysteine pairing not given here, also called pep8) [peptide USP30-8] | ~5 |  |  |  |  |  | 
